Assay results as given in publication PMC3687086 (Nature, 2013).

Assays:
[1] = biological target: T1, Rpt1 (subunit of the base) (yeast, UniProt P33299 1-467); test: cryo-EM structure
T1 sequence: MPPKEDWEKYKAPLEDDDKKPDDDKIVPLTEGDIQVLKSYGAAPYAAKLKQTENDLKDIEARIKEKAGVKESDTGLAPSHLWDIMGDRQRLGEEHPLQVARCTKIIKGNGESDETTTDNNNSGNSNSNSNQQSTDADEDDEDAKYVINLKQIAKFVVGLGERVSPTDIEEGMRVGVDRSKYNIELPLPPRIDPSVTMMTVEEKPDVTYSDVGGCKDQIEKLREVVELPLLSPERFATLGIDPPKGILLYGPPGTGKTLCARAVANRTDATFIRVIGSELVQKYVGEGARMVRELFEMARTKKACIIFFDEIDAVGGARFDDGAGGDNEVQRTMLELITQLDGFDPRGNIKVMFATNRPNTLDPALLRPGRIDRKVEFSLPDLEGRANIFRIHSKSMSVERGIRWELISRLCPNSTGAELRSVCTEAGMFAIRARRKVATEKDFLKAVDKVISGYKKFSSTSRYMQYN

[2] = biological target: Rpt2 (subunit of the base) (yeast, UniProt P40327 1-437); test: cryo-EM structure
Rpt2 (subunit of the base), sequence (P40327 whole entry): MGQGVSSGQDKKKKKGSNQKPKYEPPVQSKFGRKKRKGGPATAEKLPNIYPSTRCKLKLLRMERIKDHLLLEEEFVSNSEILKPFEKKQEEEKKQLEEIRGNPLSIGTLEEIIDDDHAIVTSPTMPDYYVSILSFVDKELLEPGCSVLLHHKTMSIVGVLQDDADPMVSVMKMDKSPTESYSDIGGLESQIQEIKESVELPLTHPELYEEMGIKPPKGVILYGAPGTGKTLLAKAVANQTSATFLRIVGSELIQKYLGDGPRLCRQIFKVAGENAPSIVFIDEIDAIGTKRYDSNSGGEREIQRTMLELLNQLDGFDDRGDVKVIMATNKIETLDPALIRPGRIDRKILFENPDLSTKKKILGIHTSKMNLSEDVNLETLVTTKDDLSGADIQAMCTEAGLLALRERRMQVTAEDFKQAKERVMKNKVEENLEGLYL

B1: CP subunit α4 (natural protein)
chain: MSGYDRALSIFSPDGHIFQVEYALEAVKRGTCAVGVKGKNCVVLGCERRSTLKLQDTRITPSKVSKIDSHVVLSFSGLNADSRILIEKARVEAQSHRLTLEDPVTVEYLTRYVAGVQQRYTQSGGVRPFGVSTLIAGFDPRDDEPKLYQTEPSGIYSSWSAQTIGRNSKTVREFLEKNYDRKEPPATVEECVKLTVRSLLEVVQTGAKNIEITVVKPDSDIVALSSEEINQYVTQIEQEKQEQQEQDKKKKSNH
[1]
  binding result: binds
[2]
  binding result: binds

B2: CP subunit α3 (natural protein)
chain: MGSRRYDSRTTIFSPEGRLYQVEYALESISHAGTAIGIMASDGIVLAAERKVTSTLLEQDTSTEKLYKLNDKIAVAVAGLTADAEILINTARIHAQNYLKTYNEDIPVEILVRRLSDIKQGYTQHGGLRPFGVSFIYAGYDDRYGYQLYTSNPSGNYTGWKAISVGANTSAAQTLLQMDYKDDMKVDDAIELALKTLSKTTDSSALTYDRLEFATIRKGANDGEVYQKIFKPQEIKDILVKTGITKKDEDEEADEDMK
[2]
  binding result: binds
